These results are taken from patent US20200031947A1 (RINAT NEUROSCIENCE, published 2020).

Where only a bound is given, the exact number is not on record here.

In one experiment the target is T1, human GITR on cells (human, UniProt Q9Y5U5 26-162).
T1 construct: Endogenous on primary human T cells and Tregs, or transfected into Jurkat and 3A9 cells
T1 sequence: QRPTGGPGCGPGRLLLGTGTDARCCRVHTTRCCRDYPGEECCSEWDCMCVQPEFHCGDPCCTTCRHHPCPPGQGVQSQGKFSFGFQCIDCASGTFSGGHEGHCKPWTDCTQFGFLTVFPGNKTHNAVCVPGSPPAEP
Description: flow cytometry on human T cells activated 48 h with CD3/28 beads; unlabeled antibody detected with APC goat anti-mouse Fc gamma F(ab')2. From the text:
Primary human lymphocytes were isolated from concentrated whole blood provided by the Stanford Blood Bank by first diluting blood 1:4 in Phosphate Buffered Saline (PBS, without Ca2+ and Mg2+). Peripheral Blood Mononuclear Cells (PBMC) were isolated using a Ficoll gradient underlay (Ficoll-Paque PLUS, GE Healthcare Life Sciences, Pittsburgh, Pa.). The harvested buffy layer was washed twice with PBS and counted. Cells were resuspended at 50*10e6c/mL in PBS+2% Fetal Bovine Serum (FBS) and processed with CD3 negative enrichment kit (Stem Cell Tech Vancouver, BC) according to manufacturer's instructions. After enrichment, cells were counted and frozen in aliquots of 10-20*10e6 in 90% FBS 10% DMSO freeze media for future use. For activation, a vial of cells from a donor T cell was thawed and rested overnight in R10c (RPMI 1640+10% FBS+1×NEAA+1×Sodium Pyruvate+1×Pen-Strep) at 1*10e6 cells/mL in a T75 flask. Cells were counted and stimulated for 48 hours with Dynabeads Human CD3/28 T cells activating beads at a 1:1 bead to cell ratio (Thermo Fisher). After 48 hours the cells were removed from media and washed with 1×PBS. Cells were titrated into a 96 well plate where they were stained with unlabeled mouse anti-human GITR antibodies (100-0.001 ug/mL) in PBS and incubated for 30 minutes at 37° c. […]
(A flow cytometer gives signals particle by particle.)

Experiment [1] deals with T2, cynomolgus GITR (cyGITR), soluble analyte (cynomolgus).
T2 construct: Soluble analyte in SPR; construct not described; also called cGITR
Nature of the experiment: SPR (Biacore T200), 37 C; antibody captured on anti-human Fc chip, GITR as analyte; 1:1 Langmuir fit. The procedure:
(§1) The sensor chip preparation was performed at 25° C. with a running buffer of 10 mM HEPES, 150 mM NaCl, 0.05% (v/v) Tween-20, pH 7.4. An anti-human Fc sensor chip was made by activating all flow cells of a Biacore CM4 sensor chip with a 1:1 (v/v) mixture of 400 mM EDC and 100 mM NHS for 7 minutes, at a flow rate of 10 μL/min. An anti-human Fc reagent (Goat Anti-Human IgG Fc, SouthernBiotech Catalog #2081-01) was diluted to […] in 10 mM Sodium Acetate pH 4.5 and injected on all flow cells for 7 minutes at 20 μL/min. All flow cells were blocked with 100 mM ethylenediamine in 150 mM Borate buffer pH 8.5 for 7 minutes at 10 μL/min.
(§2) Antibodies were captured from undiluted supernatants onto downstream flow cells (flow cells 2, 3 and 4) at a flow rate of 10 μL/min for 2 minutes. Different antibodies were captured on each flow cell. Flow cell 1 was used as a reference surface. Following capture of antibodies, analyte (buffer, hGITR, or cyGITR) was injected at 30 μL/min on all flow cells for two minutes. After the analyte injection, dissociation was monitored for 10 minutes followed by regeneration of all flow cells with three 1-minute injections of 75 mM Phosphoric Acid. For each captured antibody, the following analyte injections were performed: buffer, 20 nM hGITR, 200 nM hGITR, 20 nM cyGITR and 200 nM cyGITR. Buffer cycles were collected for each captured antibody for double-referencing purposes (double-referencing as described in Myszka, J. Mol. Recognit. 12:279-284 (1999). The double-referenced sensorgrams were fit globally to a simple 1:1 Langmuir with mass transport binding model.
On the technique in general: In SPR one partner is held on a chip, and binding of the other changes the refractive index at the surface.

Experiment [2] has as its target T3, human GITR (hGITR), soluble analyte (human, UniProt Q9Y5U5 26-162).
T3 sequence: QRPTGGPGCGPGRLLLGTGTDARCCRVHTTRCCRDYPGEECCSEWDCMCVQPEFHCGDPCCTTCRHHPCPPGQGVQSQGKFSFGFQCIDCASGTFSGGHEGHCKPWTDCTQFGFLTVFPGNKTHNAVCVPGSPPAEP
The experiment is described as above. The procedure:
as §1, §2

B1: m10H2 (antibody, V domains shown)
VH: QVQLQQSGAELMKPGASVKISCTATGYTISRYWIEWVKQRPGHGLEWIGEILPGSGVTNYNEKFKGKATFTADTSSNTAYMQLSSLTSEDSAVYSCARKGTYYAMDYWGQGTSVTVSS
VL: DILLTQSPAILSVSPGERVSFSCRASQSIGTSIHWYQQRTNGSPRLLIKYASESVSGIPSRFSGSGSGTDFTLFINSVESEDIADYYCQQTYSWPATFGAGTKLELK
notes: In ADCC it is called hIgG1; also called anti-human GITR antibody m10H2; A647 labeled m10H2
What is called EC50 (read off the curve) is the concentration needed to bring the measured effect to its halfway point. As usually defined, the Kd is a measure of binding affinity in units of concentration. A high value points to lower affinity. As a reminder, the koff is the first-order rate constant of dissociation. The kon is the rate constant with which the complex forms. As for B1, the “EC50 (read off the curve)” value with human GITR on cells was approximately 0.07 µg/mL. In experiment [1], the Kd was more than 100 nM, the koff came out at 0.0073 s⁻¹ and the t1/2 stood at 1.6 min. Further, in experiment [2], the Kd was 2.2 nM, the koff came out at 0.00077 s⁻¹, the kon amounted to 350000 M⁻¹ s⁻¹ and the t1/2 amounted to 15 min.
